The values below come from PMC4176361.

For assay [1], the target named is His-tagged RctB fragment C157 (Vibrio cholerae). Description: AUC; sedimentation velocity, 50 000 rpm, 20°C; 0.3M NaCl, 0.025M Tris-HCl (pH 8.0), 0.0005M EDTA, 5% (v/v) glycerol; C137, C157 and C208 loaded at 3.6, 15 and 5.8 μM.
Assay [2] shares this target. Description: SEC; Superdex 200 10/300 GL in RctB buffer; molar mass from peak position against protein standards.
For assay [3], the target named is His-tagged RctB fragment C208 (Vibrio cholerae). Description: AUC; sedimentation velocity, 50 000 rpm, 20°C; 0.3M NaCl, 0.025M Tris-HCl (pH 8.0), 0.0005M EDTA, 5% (v/v) glycerol; C137, C157 and C208 loaded at 3.6, 15 and 5.8 μM.
Assay [4] has the same target. Description: SEC; Superdex 200 10/300 GL in RctB buffer; molar mass from peak position against protein standards.

Take “His-tagged RctB fragment C157 (domain or fragment)”: the stoichiometry N in assay [1] and in assay [2] was 2 each time.

In the case of “His-tagged RctB fragment C208 (domain or fragment)”, the stoichiometry N in assay [3] and in assay [4] was 2 throughout.
